The results in this text go back to the supplement of paper PMC7877785.

± gives the uncertainty stated by the source.

This data set is described as follows: self-splicing fitness, log relative to wild type (ln ratio); higher = more splicing; Tetrahymena group I intron in knt gene, E. coli kanamycin selection, DiMSum; sequences stand for … in CUCUCU…GGAGGGAAAAGUUAUCAGGCAUGCACCUGGUAGCUAGUCUUUAAACCAAUAGAUUGCAUCGGUUUAAAAGGCAAGACCGUCAAAUUGCGGGAAAGGGGUCAACAGCCGUUCAGUACCAAGUCUCAGGGGAAACUUUGAGAUGGCCUUGCAAAGGGUAUGGUAAUAAGCUGACGGACAUGGUCCUAACCACGCAGCCAAGUCCUAAGUCAACAGAUCUUCUGUUGAUAUGGAUGCAGUUCACAGACUAAAUGUCGGUCGGGGAAGAUGUAUUCUUCUCAUAAGAUAUAGUCGGACCUCUCCUUAAUGGGAGCUAGCGGAUGAAGUGAUGCAACACUGGAGCCGCUGGGAACUAAUUUGUAUGCGAAAGUAUAUUGAUUAGUUUUGGAGUACUCGUGGUCG
Summed up:
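The eight P1ex-region nucleotides of an intron in the knt kanamycin-resistance gene on pET-22b(+) were all randomised and the library put into E. coli BL21(DE3). Six replicate transformations were grown overnight at 37°C or 30°C on LB agar with or without 25 μg/mL kanamycin, together with 100 μg/mL carbenicillin, 50 μM IPTG and 0.2% rhamnose. Colonies were pooled and amplicon-sequenced on an Illumina HiSeq 2500. Fitness from DiMSum is the error-weighted combination of wild-type-normalised replicate fold changes, kanamycin over none.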

For UUCAAGCAAUAUUACGAGUG, the “self-splicing fitness (ln)” value was -0.827 ± 0.06 (30 °C) and -0.257 ± 0.077 (37 °C).

UUCAAGCAAUAUUACGAUGG: the “self-splicing fitness (ln)” value was -2.38 ± 0.19 (30 °C) and -1.95 ± 0.17 (37 °C).

Turning to UUCAAGCAAUAUUACGCGCU, the “self-splicing fitness (ln)” value by setting is: (30 °C) -1.69 ± 0.12; (37 °C) -1.44 ± 0.13.

Take UUCAAGCAAUAUUACGCUAC: the “self-splicing fitness (ln)” value was -3 ± 0.25 (30 °C) and -1.52 ± 0.26 (37 °C).

Regarding UUCAAGCAAUAUUACGCUGC, the “self-splicing fitness (ln)” value was -2.71 ± 0.3 (30 °C) and -1.92 ± 0.23 (37 °C).

UUCAAGCAAUAUUACGCUGG: the “self-splicing fitness (ln)” value is -2.29 ± 0.13 (30 °C) and -3.05 ± 0.24 (37 °C).

For UUCAAGCAAUAUUACGCUUA, the “self-splicing fitness (ln)” value runs as follows: (30 °C) -1.32 ± 0.096; (37 °C) -1.2 ± 0.096.

For the sequence UUCAAGCAAUAUUACGCUUG, the “self-splicing fitness (ln)” value by setting is: (30 °C) -2.15 ± 0.35; (37 °C) -1.01 ± 0.26.

Consider UUCAAGCAAUAUUACGCUUU, for which the “self-splicing fitness (ln)” value by setting is: (30 °C) -5.08 ± 0.41; (37 °C) -2.37 ± 0.28.

On to UUCAAGCAAUAUUACGUACG, for which the “self-splicing fitness (ln)” value is -1.19 ± 0.13 (30 °C) and -0.699 ± 0.21 (37 °C).

Regarding UUCAAGCAAUAUUACGUAGG, the “self-splicing fitness (ln)” value was -1.53 ± 0.08 (30 °C) and -0.995 ± 0.13 (37 °C).

With UUCAAGCAAUAUUACGUAUG, the “self-splicing fitness (ln)” value by setting is: (30 °C) -3.21 ± 0.22; (37 °C) -1.64 ± 0.17.

Consider UUCAAGCAAUAUUACGUCAG, for which the “self-splicing fitness (ln)” value (30 °C) was -3.43 ± 0.2 and the “self-splicing fitness (ln)” value (37 °C) is -1.23 ± 0.14.

Consider UUCAAGCAAUAUUACGUCAU, for which the “self-splicing fitness (ln)” value is -2.97 ± 0.15 (30 °C) and -2.59 ± 0.13 (37 °C).

UUCAAGCAAUAUUACGUUGA: the “self-splicing fitness (ln)” value was -2.77 ± 0.21 (30 °C) and -2.7 ± 0.21 (37 °C).

As to UUCCAGCAAUAUUACGAAGG, the “self-splicing fitness (ln)” value (30 °C) is -3.8 ± 0.22 and the “self-splicing fitness (ln)” value (37 °C) is -3.2 ± 0.37.

Regarding UUCCAGCAAUAUUACGAAUC, the “self-splicing fitness (ln)” value is, setting by setting: (30 °C) -4.37 ± 0.31; (37 °C) -1.09 ± 0.41.

As for UUCCAGCAAUAUUACGACCG, the “self-splicing fitness (ln)” value was -1.25 ± 0.099 (30 °C) and -0.758 ± 0.14 (37 °C).

Consider UUCCAGCAAUAUUACGACUG, for which the “self-splicing fitness (ln)” value runs as follows: (30 °C) -3.9 ± 0.21; (37 °C) -2.99 ± 0.23.

With UUCCAGCAAUAUUACGAGAU, the “self-splicing fitness (ln)” value (30 °C) was -3.68 ± 0.43 and the “self-splicing fitness (ln)” value (37 °C) is -0.948 ± 0.19.

UUCCAGCAAUAUUACGAGGG: the “self-splicing fitness (ln)” value by setting is: (30 °C) -3.28 ± 0.15; (37 °C) -1.28 ± 0.15.

With UUCCAGCAAUAUUACGAUCA, the “self-splicing fitness (ln)” value was -1.26 ± 0.2 (30 °C) and -1.27 ± 0.2 (37 °C).

Regarding UUCCAGCAAUAUUACGCACG, the “self-splicing fitness (ln)” value (30 °C) is -1.72 ± 0.086 and the “self-splicing fitness (ln)” value (37 °C) is -0.884 ± 0.13.

On to UUCCAGCAAUAUUACGCACU, for which the “self-splicing fitness (ln)” value (30 °C) was -3.48 ± 0.31 and the “self-splicing fitness (ln)” value (37 °C) is -0.748 ± 0.16.

As to UUCCAGCAAUAUUACGCAGC, the “self-splicing fitness (ln)” value was -3.77 ± 0.33 (30 °C) and -2.31 ± 0.35 (37 °C).

For UUCCAGCAAUAUUACGCAUA, the “self-splicing fitness (ln)” value was -0.568 ± 0.093 (30 °C) and 0.161 ± 0.096 (37 °C).

UUCCAGCAAUAUUACGCCUA: the “self-splicing fitness (ln)” value by setting is: (30 °C) -0.199 ± 0.076; (37 °C) 0.206 ± 0.091.

Regarding UUCCAGCAAUAUUACGCCUC, the “self-splicing fitness (ln)” value runs as follows: (30 °C) -1.84 ± 0.21; (37 °C) -0.711 ± 0.29.

UUCCAGCAAUAUUACGCCUG: the “self-splicing fitness (ln)” value is, setting by setting: (30 °C) -3.5 ± 0.47; (37 °C) -2.35 ± 0.39.

For the sequence UUCCAGCAAUAUUACGCGAC, the “self-splicing fitness (ln)” value (30 °C) was -3.35 ± 0.24 and the “self-splicing fitness (ln)” value (37 °C) was -0.902 ± 0.19.

With UUCCAGCAAUAUUACGCGAU, the “self-splicing fitness (ln)” value is, setting by setting: (30 °C) -2.85 ± 0.21; (37 °C) -1.32 ± 0.18.

In the case of UUCCAGCAAUAUUACGCGCC, the “self-splicing fitness (ln)” value is, setting by setting: (30 °C) -2.72 ± 0.24; (37 °C) -0.4 ± 0.21.

Regarding UUCCAGCAAUAUUACGCGCG, the “self-splicing fitness (ln)” value reads like this: (30 °C) -0.776 ± 0.068; (37 °C) -0.688 ± 0.099.

In the case of UUCCAGCAAUAUUACGCUGU, the “self-splicing fitness (ln)” value runs as follows: (30 °C) -3.96 ± 0.24; (37 °C) -2.42 ± 0.22.

For the sequence UUCCAGCAAUAUUACGCUUA, the “self-splicing fitness (ln)” value is, setting by setting: (30 °C) -0.131 ± 0.066; (37 °C) -0.175 ± 0.077.

Take UUCCAGCAAUAUUACGGAUG: the “self-splicing fitness (ln)” value (30 °C) was -0.779 ± 0.058 and the “self-splicing fitness (ln)” value (37 °C) was found to be 0.293 ± 0.076.

Regarding UUCCAGCAAUAUUACGGCAG, the “self-splicing fitness (ln)” value by setting is: (30 °C) -0.446 ± 0.075; (37 °C) -0.096 ± 0.11.
